For this assay, the target named is T1, GST-XRN1-C-terminal region (aa 1174–1706) fusion protein (human, UniProt Q8IZH2 1174-1706).
T1 construct: XRN1, human, C-terminal region aa 1174-1706 (vector pGEX-6P); Held on glutathione beads in the pull-down; also called GST-tagged-XRN1 (aa 1174–1706); source: E. coli BL21(DE3), purified (glutathione Sepharose 4B)
T1 sequence: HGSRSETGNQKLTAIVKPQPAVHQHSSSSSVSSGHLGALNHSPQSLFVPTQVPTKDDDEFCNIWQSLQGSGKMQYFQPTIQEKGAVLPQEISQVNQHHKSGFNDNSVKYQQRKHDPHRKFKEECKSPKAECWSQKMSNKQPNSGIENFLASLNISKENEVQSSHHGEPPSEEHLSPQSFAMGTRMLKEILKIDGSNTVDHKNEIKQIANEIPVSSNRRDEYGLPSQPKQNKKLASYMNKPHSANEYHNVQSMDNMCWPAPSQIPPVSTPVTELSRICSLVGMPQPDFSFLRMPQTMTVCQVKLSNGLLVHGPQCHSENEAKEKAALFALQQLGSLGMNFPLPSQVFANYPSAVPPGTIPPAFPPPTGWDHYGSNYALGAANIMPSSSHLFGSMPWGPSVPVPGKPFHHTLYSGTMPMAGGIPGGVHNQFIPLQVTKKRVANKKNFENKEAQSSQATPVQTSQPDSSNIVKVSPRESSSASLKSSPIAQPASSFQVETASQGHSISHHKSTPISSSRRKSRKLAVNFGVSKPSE
Kind of assay: pull-down. Conditions: both partners purified.

B1: His-NS1 from PR8 (natural protein)
chain: MDPNTVSSFQVDCFLWHVRKRVADQELGDAPFLDRLRRDQKSLRGRGSTLGLDIETATRAGKQIVERILKEESDEALKMTMASVPASRYLTDMTLEEMSRDWSMLIPKQKVAGPLCIRMDQAIMDKNIILKANFSVIFDRLETLILLRAFTEEGAIVGEISPLPSLPGHTAEDVKNAVGVLIGGLEWNDNTVRVSETLQRFAWRSSNENGRPPLTPKQKREMAGTIRSEV
notes: also called His-tagged NS1; recombinant NS1
In the case of B1, the binding result is recorded as “binds”.

For the origin of these results see publication PMC8406323, “Cellular 5′-3′ mRNA Exoribonuclease XRN1 Inhibits Interferon Beta Activation and Facilitates Influenza A Virus Replication” (mBio, 2021).
